From US20120251547A1 (Amgen, published 2012)
Residue numbers refer to the chain shown, from its start. Where two headings read alike, the source gives them in different places.

T1: chimera D
T1 construct: human IL-17RA extracellular domain with mouse Domain D; column head 176-197; also called Construct D
T1 IL-17RA extracellular domain with FLAG-polyHis tag: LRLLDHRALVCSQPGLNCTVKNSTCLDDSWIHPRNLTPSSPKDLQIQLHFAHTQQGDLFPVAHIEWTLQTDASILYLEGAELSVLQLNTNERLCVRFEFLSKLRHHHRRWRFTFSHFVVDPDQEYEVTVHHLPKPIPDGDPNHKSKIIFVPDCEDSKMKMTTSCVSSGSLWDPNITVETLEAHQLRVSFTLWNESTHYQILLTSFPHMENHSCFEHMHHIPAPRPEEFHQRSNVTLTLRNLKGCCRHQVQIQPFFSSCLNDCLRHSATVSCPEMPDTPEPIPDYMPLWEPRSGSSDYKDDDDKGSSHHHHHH

B1: AMH11/AML11 (antibody, IgG2, V domains shown)
VH: QVQLVESGGGVVQPGRSLRLSCATSGITFSSYGMHWVRQAPGKGLEWVAVIWYDGSNKYYADSVKGRFTISRDNSKNTLYLQMNSLRAEDTAVYYCARDTKDYWGQGTLVTVSS
VL: EIVMTQSPATLSVSPGERATLSCRASQSVSSNLAWYQQKPGQAPRLLIYGASTRAAGIPARFSGGGSGTAFTLTISNLQSEDFAVYYCQHYINWPKWTFGQGTKVDIK
notes: human mAb from IgG2 XenoMouse mice; also called AM-11; antibody A
B2: AMH12/AML12 (antibody, IgG2, V domains shown)
VH: QVQLVQSGAEVKKPGASVKVSCKASGYTLTSYGISWVRQAPGQGLEWMGWISTYKGNTNYAQKLQGRVTMTTDTSTSTAYMELRSLRSDDTAVYYCARKQLVFDYWGQGTLVTVSS
VL: EIVMTQSPATLSVSPGERATLSCRASQSISSSLAWYQQKPGQAPRLLIYGASTRATGIPARFSGSGSGTEFTLTISSLQSENFAVYYCQQYDNWPLTFGGGTKVEIK
notes: human mAb from IgG2 XenoMouse mice; also called AM-12; antibody M
B3: AMH26/AML26 (antibody, IgG2, V domains shown)
VH: QVQLVESGGGLVKPGGSLRLSCAASGFTFSDYYMSWIRQAPGKGLEWVSYISSSGSTIYYADSVKGRFTISRDNAKNSLYLQMNSLRAEDTAVYYCARDRTYYFGSGSYEGMDVWGQGTTVTVSS
VL: B2 VL with V3L, I29V, S30Y, S32N, Y49S, N82D, D92Y, L96W, G100Q
notes: human mAb from IgG2 XenoMouse mice; also called AM-26; antibody P
B4: AMH17/AML17 (antibody, V domains shown)
VH: B2 VH with S17A, S25T, T53A, K55S, N59K
VL: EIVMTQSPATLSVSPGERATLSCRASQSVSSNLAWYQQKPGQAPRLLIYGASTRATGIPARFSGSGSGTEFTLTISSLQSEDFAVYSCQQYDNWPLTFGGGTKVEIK
notes: human mAb from IgG2 XenoMouse mice; also called AM-17; antibody N
B5: AMH16/AML16 (antibody, IgG2, V domains shown)
VH: B2 VH with L29F, T53A, K55N, N59K, A79V
VL: B2 VL with S31T, A51T, N82D, Y87F, N93I
notes: human mAb from IgG2 XenoMouse mice; also called AM-16; antibody O
B6: AMH13/AML13 (antibody, IgG2, V domains shown)
VH: QVQLVESGGGVVQPGRSLRLSCAASGFTFSSYGMQWVRQAPGKGLEWVAVIWYDGNKKYYADSVKGRFTISRDNSKNTLYLQMNSLRAEDTAVYYCARGRVRDYYYGMDVWGQGTTVTVSS
VL: DIVMTQTPLSLSVTPGQPASIACKSSQSLLHSDGKTYLYWYLQKPGQPPQLLIYEVSTRFSGVPDRFSGSGSGTDFTLKISRVEAEDVGVFYCMQSIQLPLTFGGGTKVEIK
notes: human mAb from IgG2 XenoMouse mice; also called AM-13
B7: AMH15/AML15 (antibody, IgG2, V domains shown)
VH: B6 VH
VL: B2 VL with A19V, I29V, S32N, Y36F, L46P, G50D, T56A, E70D, N82D
notes: human mAb from IgG2 XenoMouse mice; tested only as part of a non-clonal hybridoma supernatant; also called AM-15

Assays:
[1] = biological target: T2, huIL-17RA-FLAG-polyHis (human, UniProt Q96F46 33-320); experiment: binning; IL-17RA held by bead mAb A
T2 construct: also called IL-17RA-FLAG-pHis; wild-type IL-17RA

[2] = biological target: T2, huIL-17RA-FLAG-polyHis; experiment: binning; IL-17RA held by bead mAb B
[3] = biological target: T2, huIL-17RA-FLAG-polyHis; experiment: binning; IL-17RA held by bead mAb C
[4] = biological target: T2, huIL-17RA-FLAG-polyHis; experiment: binning; IL-17RA held by bead mAb D
[5] = biological target: T2, huIL-17RA-FLAG-polyHis; experiment: binning; IL-17RA held by bead mAb E
[6] = biological target: T2, huIL-17RA-FLAG-polyHis; experiment: binning; IL-17RA held by bead mAb F
[7] = biological target: T2, huIL-17RA-FLAG-polyHis; experiment: binning; IL-17RA held by bead mAb H
[8] = biological target: T2, huIL-17RA-FLAG-polyHis; experiment: binning; IL-17RA held by bead mAb M
[9] = biological target: T2, huIL-17RA-FLAG-polyHis; experiment: binning; IL-17RA held by bead mAb P
[10] = biological target: T2, huIL-17RA-FLAG-polyHis; experiment: binning; IL-17RA held by bead mAb G
[11] = biological target: T2, huIL-17RA-FLAG-polyHis; experiment: binning; IL-17RA held by bead mAb I
[12] = biological target: T2, huIL-17RA-FLAG-polyHis; experiment: binning; IL-17RA held by bead mAb J
[13] = biological target: T2, huIL-17RA-FLAG-polyHis; experiment: binning; IL-17RA held by bead mAb K
[14] = biological target: T2, huIL-17RA-FLAG-polyHis; experiment: binning; IL-17RA held by bead mAb L
[15] = biological target: T2, huIL-17RA-FLAG-polyHis; experiment: binning; IL-17RA held by bead mAb N
[16] = biological target: T2, huIL-17RA-FLAG-polyHis; experiment: binning; IL-17RA held by bead mAb O
[17] = biological target: T2, huIL-17RA-FLAG-polyHis; experiment: binning; IL-17RA held by bead mAb Q
[18] = biological target: T2, huIL-17RA-FLAG-polyHis; experiment: binning; IL-17RA held by bead mAb R
[19] = biological target: T3, cynomolgus IL-17RA, on cells (cynomolgus); experiment: FACS competition: non-clonal supernatant inhibiting biotin-huIL-17A (competitor) binding to cyno IL-17RA+ CHO cells
T3 construct: whole, on cells; also called CHO-cynoIL-17RA; cyno IL-17RA+ CHO cells

[20] = biological target: T4, human IL-17RA, full-length, on cells (human, UniProt Q96F46 33-866); experiment: cell-based or functional assay
[21] = biological target: T4, human IL-17RA, full-length, on cells; experiment: cell-based or functional assay; remark: listed apart in the source
[22] = biological target: human IL-17RA (form used in the low resolution BIAcore not stated) (human, UniProt Q96F46 33-320, limits assumed); experiment: low resolution BIAcore, subcloned hybridoma
[23] = biological target: T3, cynomolgus IL-17RA, on cells; experiment: FACS competition: non-clonal supernatant inhibiting biotin-huIL-17A (competitor) binding to cyno IL-17RA+ CHO cells; remark: listed apart in the source
[24] = biological target: T5, chimera J; experiment: Bio-Plex titration on His-captured chimera;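 also: binding of anti-IL-17RA antibodies (4-fold titration across about 5 logs, 1 h) to His-captured IL-17RA chimeras on multiplexed beads, MFI read as percent of maximal wild-type human IL-17RA signal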
T5 construct: human IL-17RA extracellular domain with mouse Domains D and E; column head D+E; also called Construct J

[25] = biological target: T1, chimera D; experiment: Bio-Plex titration on His-captured chimera;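 also: binding of anti-IL-17RA antibodies (4-fold titration across about 5 logs, 1 h) to His-captured IL-17RA chimeras on multiplexed beads, MFI read as percent of maximal wild-type human IL-17RA signal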
[26] = biological target: T3, cynomolgus IL-17RA, on cells; experiment: FACS competition: non-clonal supernatant inhibiting biotin-huIL-17A (competitor) binding to cyno IL-17RA+ CHO cells; remark: listed apart in the source

Row | Binder | normalized MFI [1] | normalized MFI [2] | normalized MFI [3] | normalized MFI [4] | normalized MFI [5] | normalized MFI [6] | normalized MFI [7] | normalized MFI [8] | normalized MFI [9] | normalized MFI [10] | normalized MFI [11] | normalized MFI [12] | normalized MFI [13] | normalized MFI [14] | normalized MFI [15] | normalized MFI [16] | normalized MFI [17] | normalized MFI [18] | % inhibition of IL-6 Production, IL-17A/HFF bioassay, non-clonal supernatant 1:4 [20] [%] | % inhibition of IL-6 Production, IL-17A/HFF bioassay, non-clonal supernatant 1:32 [20] [%] | further results
1 | B1 | -220 | 1200 | 330 | 337 | 300 | 345 | 8640 | 1860 | 6590 | 454 | 5300 | 2320 | 7210 | 3020 | 2650 | 3800 | 9650 | 7060 | – | – | MFI [19]: 9
2 | B2 | 1940 | 455 | 3040 | 888 | 765 | 1410 | 73 | 20 | 1900 | 3280 | 26 | 31 | -5 | 18 | 11 | 49 | 60 | 40 | 75 | 82 | % inhibition of IL-6 Production, IL-17A/HFF bioassay, non-clonal supernatant 1:128 [20]: 61%; IL-17A/HFF bioassay IC50, subclone 17 [21]: 3.5 nM; IL-17A/HFF bioassay IC50, subclone 18 [21]: 3.7 nM; IL-17A/HFF bioassay IC50, subclone 20 [21]: 5.5 nM; Kd [22]: 8.2 nM; MFI [23]: 6
3 | B3 | – | – | – | – | – | – | – | – | – | – | – | – | – | – | – | – | – | – | – | – | EC50 [24]: 0.234 nM; EC50 [25]: 0.145 nM
4 | B4 | 2470 | 597 | 3980 | 1200 | 999 | 1920 | 68 | 40 | 2470 | 4260 | 18 | 8 | -44 | -1 | 43 | 55 | 98 | 76 | 90 | 81 | % inhibition of IL-6 Production, IL-17A/HFF bioassay, non-clonal supernatant 1:128 [20]: 73%; IL-17A/HFF bioassay IC50, subclone 21 [21]: 2.5 nM; IL-17A/HFF bioassay IC50, subclone 22 [21]: 5.3 nM; IL-17A/HFF bioassay IC50, subclone 23 [21]: 0.57 nM; Kd [22]: 8.2 nM; MFI [23]: 8
5 | B5 | 3000 | 630 | 4510 | 1370 | 1260 | 2220 | 120 | 73 | 2540 | 4490 | 10 | 59 | -111 | 18 | 83 | 139 | 135 | 76 | 86 | 90 | % inhibition of IL-6 Production, IL-17A/HFF bioassay, non-clonal supernatant 1:128 [20]: 71%; IL-17A/HFF bioassay IC50, subclone 24 [21]: 1.6 nM; IL-17A/HFF bioassay IC50, subclone 25 [21]: 2.3 nM; IL-17A/HFF bioassay IC50, subclone 26 [21]: 1.4 nM; Kd [22]: 6.2 nM; MFI [23]: 6
6 | B6 | – | – | – | – | – | – | – | – | – | – | – | – | – | – | – | – | – | – | 73 | 78 | % inhibition of IL-6 Production, IL-17A/HFF bioassay, non-clonal supernatant 1:128 [20]: 75%; IL-17A/HFF bioassay IC50, subclone 13 [21]: > 10 nM; Kd [22]: 7.6 nM; MFI [23]: 6
7 | B7 | – | – | – | – | – | – | – | – | – | – | – | – | – | – | – | – | – | – | – | – | MFI [26]: 6
